Experimental data taken from paper PMC11867022.

Tested on: S9.6 antibody (anti-DNA-RNA hybrid) (mouse)
Assay: SPR
Conditions: single-cycle kinetics, pH 7.0, SPR: 10 mM HEPES pH 7.0, 15 mM MgCl2, 80 mM NaCl, S9.6 on CM5 chip, EMSA: 200 nM nucleic acid, 80 ug/mL S9.6, 30 min room temperature, 6% PAGE in 0.5X TBE

AGTGAATTCTACCAGTGCCATAGAGGAGAGGAGAGGAGGGGAGGTTTACCTCCCCTCCTCTCCTCTCCCTTTGCCTCTCCTCTCCTCCCCTCCGT / UAUGGCACUGGUAGAAUUCACU [Switch A (30% TAT)/miR-183 hybrid]
Kd (ka 5.99e5 1/Ms, kd 1.74e-4 1/s): 0.291 nM

AAGAAAAGAGAAGAAGAGAACACCTTCTCTTCTTCTCTTTTCTTAGACCCCTATCACGATTAGCATTAA / UUAAUGCUAAUCGUGAUAGGGGU [Switch B (70% TAT)/miR-155 hybrid]
Kd: 0.144 nM
